Results published in PMC3904411.

Experiments:
[1] = biological target: PcrG (Pseudomonas aeruginosa strain 2192); test: SPR; BIACORE 3000, NTA sensor chip; […]; 10 mM hepes pH 7.4, 150 mM NaCl, 50 μM EDTA; 25°C; 5 μl/min; Langmuir binding model
[2] = biological target: ∆PcrG_((13–72)) (Pseudomonas aeruginosa strain 2192); test: as above
[3] = biological target: PcrG (Pseudomonas aeruginosa strain 2192); test: cross-linking; EGS-sulfonate 0.5 mM, 1 mM and 2 mM, room temperature, 30 minutes; 10 mM hepes pH 7.4, 150 mM NaCl; 12% SDS PAGE
[4] = biological target: PcrG (Pseudomonas aeruginosa strain 2192); test: dynamic light scattering; Malvern Zetasizer nano ZS; proteins 2–5 mg/ml, filtered 0.22 micron; ΔPcrV(128–294) alone and with equimolar PcrG
[5] = biological target: ∆PcrG_((13–72)) (Pseudomonas aeruginosa strain 2192); test: native MS; called native mass spectrometry; protein diluted to 0.5-1.0 mg/ml in HPLC water, spotted on a MALDI target plate with CHCA matrix; Applied Biosystem 4700 Proteomics Analyser
[6] = biological target: PcrG (Pseudomonas aeruginosa strain 2192); test: SEC; HiLoad 16/60 Superdex 200 pg; 25 mM Tris–HCl pH 7.4, 150 mM NaCl; proteins 2–5 mg/ml; 1 ml/min; calibrated with markers

Substance: ΔPcrV_((128–250)) (from UniProt G3XD49 128-250) (domain or fragment)
- Kd [1]: 247 nM

Substance: ΔPcrV_((159–294)) (from UniProt G3XD49 159-294) (domain or fragment)
- Kd [1]: 36.6 nM

Substance: PcrV (from UniProt G3XD49 1-294) (natural protein)
- Ka [2]: 1.75e+06 M⁻¹
- Kd [2]: 570 nM
- koff [2]: 0.00978 s⁻¹
- kon [2]: 17100 M⁻¹ s⁻¹

Substance: ΔPcrV_((128–294)) (from UniProt G3XD49 128-294) (domain or fragment)
- stoichiometry N [3]: 1
- stoichiometry N [4]: 1
- Ka [1]: 4.11e+07 M⁻¹
- Kd [1]: 24.3 nM
- koff [1]: 1.24e-05 s⁻¹
- kon [1]: 511 M⁻¹ s⁻¹
- Ka [2]: 1.61e+06 M⁻¹
- Kd [2]: 621 nM
- koff [2]: 1.69e-05 s⁻¹
- kon [2]: 27.2 M⁻¹ s⁻¹

Substance: ΔPcrV_((1–250)) (from UniProt G3XD49 1-250) (domain or fragment)
- Kd [1]: 179 nM

Substance: ΔPcrV_((1–158)) (from UniProt G3XD49 1-158) (domain or fragment)
- Kd [1]: 203 nM

Substance: ∆PcrG_((13–72)) (domain or fragment)
- stoichiometry N [5]: 2

Substance: PcrG (natural protein)
- stoichiometry N [6]: 2
